The text below walks through data of patent publication US20170343556A1 (VENTANA MEDICAL SYSTEMS, published 2017).

For this test, the target named is T1, human PD-L1 (Programmed death ligand-1) (human, UniProt Q9NZQ7 19-290).
T1 construct: whole, on cells; Endogenous PD-L1 in fixed tissue sections, detected by immunohistochemistry; No recombinant construct was used; also called B7-H1; PDCD1L1
As to the kind of experiment: immunohistochemistry on FFPE tissue sections, OptiView DAB detection. How it is done:
VENTANA PD-L1 (SP263) is a rabbit monoclonal primary antibody which binds to PD-L1 in paraffin-embedded tissue sections. The specific antibody can be localized using a haptenated secondary antibody followed by a multimer anti-hapten-HRP conjugate (OptiView DAB IHC Detection Kit, Cat. No. 760-700). The specific antibody-enzyme complex is then visualized with a precipitating enzyme reaction product. Each step is incubated for a precise time and temperature. At the end of each incubation step, the VENTANA BENCHMARK automated slide stainer washes the sections to stop the reaction and to remove unbound material that would hinder the desired reaction in subsequent steps. It also applies LCS (Cat. No. 650-210/Cat. No. 650-010), which minimizes evaporation of the aqueous reagents from the specimen slide. In addition to staining with VENTANA PD-L1 (SP263), a second slide is stained with a rabbit monoclonal negative control Ig (Cat. No. 790-4795) to assess background staining. [0113] IB. Specimen Preparation

T1 sequence (Q9NZQ7 19-290): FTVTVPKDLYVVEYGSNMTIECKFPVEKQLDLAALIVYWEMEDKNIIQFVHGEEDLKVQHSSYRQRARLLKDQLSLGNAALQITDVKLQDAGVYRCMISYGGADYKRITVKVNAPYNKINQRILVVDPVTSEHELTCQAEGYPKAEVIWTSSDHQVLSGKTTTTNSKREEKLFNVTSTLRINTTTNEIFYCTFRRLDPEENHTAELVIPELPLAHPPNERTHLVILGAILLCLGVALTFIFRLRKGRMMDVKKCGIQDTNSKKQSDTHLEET

B1: VENTANA PD-L1 (SP263) Rabbit Monoclonal Antibody (antibody, V domains shown)
VH: QSLEESGGRLVTPGTPLTLTCTASGFSLSNHAISWVRQAPGKGLEWIGTINSDTHTYYATWPKGRFTISKTSSTTVDLKMTSPTTEDTATYFCARRIFSSSNIWGPGTLVTVSS
VL: AIVMTQTSSPVSAVVGGTVAINCQASQSIYNNNWLSWFQQKPGQPPKLLIYLASTLASGVPSRFKGSGSGTQFTLTISDVVCDDAATYYCIGGESSNNDGIAFGGGTEVVVK
notes: Rabbit monoclonal primary antibody with a kappa light chain; also called SP263 antibody; anti-PD-L1
Regarding B1, the binding result is recorded as “binds”.
